Blank lines part the entries; values can stand above or below the binder they belong to.
What was measured:
[1] = biological target: DRP-bound αβ-tubulin (1:1 complex of porcine αβ-tubulin and DARPin D1) (porcine) (UniProt P02550); experiment: SEC-MALS; Alp14 constructs mixed with soluble αβ-tubulin (with or without DRP), Superdex 200 Increase 10/300, 80-100 mM KCl
[2] = biological target: αβ-tubulin heterodimer purified from porcine brains (porcine) (UniProt P02550); experiment: as above
[3] = biological target: DRP-bound αβ-tubulin (1:1 complex of porcine αβ-tubulin and DARPin D1) (porcine) (UniProt P02550); experiment: SEC; quantitative SEC (Superdex 200 10/300) with SDS-PAGE densitometry of fractions; 1 αβ-tubulin per Alp14 subunit, with or without DRP; 100 mM KCl, 50 mM HEPES pH 7.0, 1 mM MgCl2, 1 mM β-mercaptoethanol
[4] = biological target: αβ-tubulin heterodimer purified from porcine brains (porcine) (UniProt P02550); experiment: as above
[5] = biological target: DRP-bound αβ-tubulin (1:1 complex of porcine αβ-tubulin and DARPin D1) (porcine) (UniProt P02550); experiment: SEC; quantitative SEC (Superdex 200 10/300) with SDS-PAGE densitometry of fractions; 1 αβ-tubulin per Alp14 subunit, with or without DRP; 200 mM KCl, 50 mM HEPES pH 7.0, 1 mM MgCl2, 1 mM β-mercaptoethanol
[6] = biological target: αβ-tubulin heterodimer purified from porcine brains (porcine) (UniProt P02550); experiment: as above
[7] = biological target: DRP-bound αβ-tubulin (1:1 complex of porcine αβ-tubulin and DARPin D1) (porcine) (UniProt P02550); experiment: SEC; quantitative SEC (Superdex 200 10/300) with SDS-PAGE densitometry of fractions; 2 αβ-tubulin per Alp14 subunit, with or without DRP; 200 mM KCl, 50 mM HEPES pH 7.0, 1 mM MgCl2, 1 mM β-mercaptoethanol
[8] = biological target: αβ-tubulin heterodimer purified from porcine brains (porcine) (UniProt P02550); experiment: as above
[9] = biological target: DRP-bound αβ-tubulin (1:1 complex of porcine αβ-tubulin and DARPin D1) (porcine) (UniProt P02550); experiment: SEC; quantitative SEC (Superdex 200 10/300) with SDS-PAGE densitometry of fractions; 2 αβ-tubulin per Alp14 subunit, with or without DRP; 100 mM KCl, 50 mM HEPES pH 7.0, 1 mM MgCl2, 1 mM β-mercaptoethanol
[10] = biological target: αβ-tubulin heterodimer purified from porcine brains (porcine) (UniProt P02550); experiment: as above
[11] = biological target: DRP-bound αβ-tubulin (1:1 complex of porcine αβ-tubulin and DARPin D1) (porcine) (UniProt P02550); experiment: ITC; TOG1 or TOG2 (100-250 μM) injected into a cell with 1:1 αβ-tubulin and DRP (20-40 μM); 25°C, 50 mM HEPES pH 7.3, 100 mM KCl, 1 mM MgCl2
[12] = biological target: DRP-bound αβ-tubulin (1:1 complex of porcine αβ-tubulin and DARPin D1) (porcine) (UniProt P02550); experiment: ITC; TOG1 or TOG2 (100-250 μM) injected into a cell with 1:1 αβ-tubulin and DRP (20-40 μM); 25°C, 50 mM HEPES pH 7.3, 200 mM KCl, 1 mM MgCl2

stoichiometry N [1]: 2
stoichiometry N [2]: 2
TOG1-TOG2:αβ-tubulin molar ratio [3]: 0.98
µM tubulin bound [3]: 4.33 µM
TOG1-TOG2:αβ-tubulin molar ratio [4]: 1.04
µM tubulin bound [4]: 4.57 µM
TOG1-TOG2:αβ-tubulin molar ratio [5]: 0.94
µM tubulin bound [5]: 4.13 µM
TOG1-TOG2:αβ-tubulin molar ratio [6]: 0.76
µM tubulin bound [6]: 3.37 µM
TOG1-TOG2:αβ-tubulin molar ratio [7]: 1.28
µM tubulin bound [7]: 5.67 µM
TOG1-TOG2:αβ-tubulin molar ratio [8]: 1.35
µM tubulin bound [8]: 5.97 µM
TOG1-TOG2:αβ-tubulin molar ratio [9]: 1.64
µM tubulin bound [9]: 7.23 µM
TOG1-TOG2:αβ-tubulin molar ratio [10]: 2
µM tubulin bound [10]: 8.82 µM
B1: wt-Alp14-monomer (S. pombe Alp14 residues 1-510) (domain or fragment)
chain: MSQDQEEDYSKLPLESRIVHKVWKVRLSAYEECSKSFSLSADGSDNCFELWNNQSELWKSVLTDSNVAAQEAGTAAFVAYCRFSDPSHLLKAREISVLSISEKCLTSPRAGTRENALEALMLLVEADSAAPVIESIIPSLSARSPKVIASNVAAIASLVEQFGAKVIPSKMIIPHISNLFGHADKNVRKEASRLTVNIYRWTGDPLKDLLFKDLRPVQTKELESLFAELPTEPPKQTRFLKSQQPTSEPNVETQVEEQPALENEESEPEPSDDQFDLVEEVDVLPNVDPNLETLMASSKWKDRKEALDKLLPVLSQPKIKDNDFFNLVAILTKSVSKDANIMVVINAAHCIQAMAKGLRSNFSKYASTSINALLERSKEKKANVIESLSSAMDAVLATSSLDDLAELIASFAGNKNPQIKSSCFSLFSRSFSNMTSLPSKFTVDTCAKACVPGVSDTFEPVRSAAAEALGVLMKLVGERAINQYLSPLDDIRKSKIRSFYETATVKAKAP

stoichiometry N [2]: 4
TOG1-TOG2:αβ-tubulin molar ratio [3]: 0.96
µM tubulin bound [3]: 4.23 µM
TOG1-TOG2:αβ-tubulin molar ratio [4]: 0.98
µM tubulin bound [4]: 4.31 µM
TOG1-TOG2:αβ-tubulin molar ratio [5]: 0.95
µM tubulin bound [5]: 4.17 µM
TOG1-TOG2:αβ-tubulin molar ratio [6]: 0.78
µM tubulin bound [6]: 3.44 µM
TOG1-TOG2:αβ-tubulin molar ratio [7]: 1.36
µM tubulin bound [7]: 6.02 µM
TOG1-TOG2:αβ-tubulin molar ratio [8]: 1.24
µM tubulin bound [8]: 5.46 µM
TOG1-TOG2:αβ-tubulin molar ratio [9]: 1.89
stoichiometry N [9]: 4
µM tubulin bound [9]: 8.33 µM
TOG1-TOG2:αβ-tubulin molar ratio [10]: 1.61
µM tubulin bound [10]: 7.11 µM
B2: wt-Alp14-dimer (S. pombe Alp14 residues 1-690) (domain or fragment)
chain: MSQDQEEDYSKLPLESRIVHKVWKVRLSAYEECSKSFSLSADGSDNCFELWNNQSELWKSVLTDSNVAAQEAGTAAFVAYCRFSDPSHLLKAREISVLSISEKCLTSPRAGTRENALEALMLLVEADSAAPVIESIIPSLSARSPKVIASNVAAIASLVEQFGAKVIPSKMIIPHISNLFGHADKNVRKEASRLTVNIYRWTGDPLKDLLFKDLRPVQTKELESLFAELPTEPPKQTRFLKSQQPTSEPNVETQVEEQPALENEESEPEPSDDQFDLVEEVDVLPNVDPNLETLMASSKWKDRKEALDKLLPVLSQPKIKDNDFFNLVAILTKSVSKDANIMVVINAAHCIQAMAKGLRSNFSKYASTSINALLERSKEKKANVIESLSSAMDAVLATSSLDDLAELIASFAGNKNPQIKSSCFSLFSRSFSNMTSLPSKFTVDTCAKACVPGVSDTFEPVRSAAAEALGVLMKLVGERAINQYLSPLDDIRKSKIRSFYETATVKAKAPTKKSKVKPSKQEESKVVVPSNAKAVKKSVVPSSPVVPSPRKATNKSLSMDVSKGNAFENGPLLPRPTTRPVSRGLSRGTSSSLQQKVKASTPLNSGALNETVQNLKNMELDDPAPQPAKHSRVDRYEHPKVLEDNDSTISSLESLKRENEELREQLKVEHEENISMQKQLSELKGELNTL

Further lines, the binder ahead of its results:

B3: isolated TOG2 domain of Alp14 (residues 320-510) (domain or fragment)
chain: KDNDFFNLVAILTKSVSKDANIMVVINAAHCIQAMAKGLRSNFSKYASTSINALLERSKEKKANVIESLSSAMDAVLATSSLDDLAELIASFAGNKNPQIKSSCFSLFSRSFSNMTSLPSKFTVDTCAKACVPGVSDTFEPVRSAAAEALGVLMKLVGERAINQYLSPLDDIRKSKIRSFYETATVKAKAP
Kd [11]: 173 nM
Kd [12]: 3250 nM

B4: isolated TOG1 domain of Alp14 (residues 1-270) (domain or fragment)
chain: MSQDQEEDYSKLPLESRIVHKVWKVRLSAYEECSKSFSLSADGSDNCFELWNNQSELWKSVLTDSNVAAQEAGTAAFVAYCRFSDPSHLLKAREISVLSISEKCLTSPRAGTRENALEALMLLVEADSAAPVIESIIPSLSARSPKVIASNVAAIASLVEQFGAKVIPSKMIIPHISNLFGHADKNVRKEASRLTVNIYRWTGDPLKDLLFKDLRPVQTKELESLFAELPTEPPKQTRFLKSQQPTSEPNVETQVEEQPALENEESEPEP
Kd [11]: 70 nM
Kd [12]: 1500 nM
